Assay results: US20210253718A1, “FRIZZLED5 PROTEIN-BINDING AGENTS” (Modmab Therapeutics Corporation, priority 2016, published 2021)

T1: FZD3 CRD (Homo sapiens, UniProt Q9NPG1)
T1 construct: CRD of FZD1, FZD2, FZD3, FZD4, FZD5, FZD6, FZD7, FZD8, FZD9 or FZD10; GPI anchor signal (C); expressed in transfected cells; host or cells: CHO cells, lentiviral pLenti-puro
T1 sequence (Q9NPG1 23-136 limits assumed): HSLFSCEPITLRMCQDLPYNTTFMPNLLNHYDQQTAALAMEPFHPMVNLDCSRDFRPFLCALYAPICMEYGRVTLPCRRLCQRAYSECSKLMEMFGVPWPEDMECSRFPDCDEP

T2: FZD8 CRD (Homo sapiens, UniProt Q9H461)
T2 construct: K31-D155; GPI anchor signal (C); expressed in transfected cells; host or cells: CHO cells, lentiviral pLenti-puro
T2 sequence (Q9H461 31-155): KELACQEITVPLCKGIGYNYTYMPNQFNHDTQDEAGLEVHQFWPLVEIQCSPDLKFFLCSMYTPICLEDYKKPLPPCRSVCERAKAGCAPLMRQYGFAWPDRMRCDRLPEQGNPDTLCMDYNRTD


Tests used:
[1] = system: PATU8988S cells; test: Effect of anti-FZD5 Fabs on proliferation of pancreatic cancer cell lines (percent growth inhibition); type: cell-based, human; conditions: Fab 2 μg/ml
[2] = target: T3, FZD7 CRD (Homo sapiens, UniProt O75084); test: Immunofluorescence of anti-FZD5 Fab binding to CHO cells overexpressing Frizzled CRD; set-up: key: −: no binding; +: very weak binder; ++: weak binder; +++: good binder; ++++: very good binder
T3 construct: D45-S169; GPI anchor signal (C); expressed in transfected cells; host or cells: CHO cells, lentiviral pLenti-puro
In short: (§1)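 Immunofluorescence readout of anti-FZD5 Fab staining on CHO cells ectopically overexpressing a single Frizzled cysteine-rich domain. Each CRD was fused to a myc tag and GPI anchor for plasma-membrane display; flow cytometry was run in parallel.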

[3] = target: T1, FZD3 CRD; test: as above; set-up: key: −: no binding; +: very weak binder; ++: weak binder; +++: good binder; ++++: very good binder
In short: as §1

[4] = target: T2, FZD8 CRD; test: as above; set-up: key: −: no binding; +: very weak binder; ++: weak binder; +++: good binder; ++++: very good binder
In short: as §1

[5] = system: RWP1 cells; test: Effect of anti-FZD5 Fabs on proliferation of pancreatic cancer cell lines (percent growth inhibition); type: cell-based, human; conditions: Fab 2 μg/ml
[6] = system: RWP1 cells; test: as above; type: cell-based, human; conditions: Fab 10 μg/ml
Procedure: (§2) The effect of presently disclosed anti-FZD5 Fabs on proliferation of RNF43 loss-of-function mutant pancreatic cancer cell lines HPAFII, PATU8988S and ASPC-1; and on pancreatic cancer cell line RWP1, was tested at […] and 10 μg/ml.

[7] = system: ASPC-1 cells; test: as above; type: cell-based, human; conditions: Fab 10 μg/ml
Procedure: as §2

[8] = system: PATU8988S cells; test: as above; type: cell-based, human; conditions: Fab 10 μg/ml
Procedure: as §2

[9] = system: HPAFII cells; test: as above; type: cell-based, human; conditions: for percent growth inhibition, HPAFII 2 μg/ml: Fab 2 μg/ml; for percent growth inhibition, HPAFII 10 μg/ml: Fab 10 μg/ml
Procedure: as §2

[10] = system: CHO cells not expressing Frizzled CRD; test: Flow cytometry of anti-FZD5 Fab binding to CHO cells not expressing Frizzled CRD (background)
Source text: The binding of anti-FZD5 Fabs to cell surface-expressed Frizzled protein was further determined for each member of the Frizzled family via flow cytometry and immunofluorescence analysis of a panel of 10 CHO cell lines, each ectopically over-expressing the extracellular cysteine-rich domain (CRD) of a different Frizzled protein family member.

[11] = system: ASPC-1 cells; test: Effect of anti-FZD5 Fabs on proliferation of pancreatic cancer cell lines (percent growth inhibition); type: cell-based, human; conditions: Fab 2 μg/ml

Immunofluorescence binding, Frizzled CRD overexpressed on CHO cells: FZD7 [2] | Immunofluorescence binding, Frizzled CRD overexpressed on CHO cells: FZD3 [3] | Immunofluorescence binding, Frizzled CRD overexpressed on CHO cells: FZD8 [4] | Molecule | percent growth inhibition, PATU8988s 2 μg/ml [1] [%] | percent growth inhibition, RWP1 2 μg/ml [5] [%] | percent growth inhibition, RWP1 10 μg/ml [6] [%] | percent growth inhibition, ASPC-1 10 μg/ml [7] [%] | percent growth inhibition, PATU8988s 10 μg/ml [8] [%] | percent growth inhibition, HPAFII 2 μg/ml [9] [%] | percent growth inhibition, HPAFII 10 μg/ml [9] [%] | Median fluorescence, Frizzled CRD overexpressed on CHO cells: None [10] | percent growth inhibition, ASPC-1 2 μg/ml [11] [%]
++++ | − | + | Fab-2912: anti-FZD5 Fab with antibody variable region Fv-2912; CDR SEQ ID NOs: 35, 36, 51, 90, 127, 164 (antibody, V domains shown) VH: EVQLVESGGGLVQPGGSLRLSCAASGFNISYSYIHWVRQAPGKGLEWVASISSSSGYTSYADSVKGRFTISADTSKNTAYLQMNSLRAEDTAVYYCARTVRGSKKPYFSGWAMDYWGQGTLVTVSS VL: DIQMTQSPSSLSASVGDRVTITCRASQSVSSAVAWYQQKPGKAPKLLIYSASSLYSGVPSRFSGSRSGTDFTLTISSLQPEDFATYYCQQFYFPYLITFGQGTKVEIK | 1.11 | 15.55 | 27.25 | 1.76 | −25.71 | 7.76 | −5.41 | 4.49 | 6.93
++++ | − | ++ | Fab-2914: anti-FZD5 Fab with antibody variable region Fv-2914; CDR SEQ ID NOs: 35, 36, 53, 92, 129, 162 (antibody, V domains shown) VH: EVQLVESGGGLVQPGGSLRLSCAASGFNIYYSYMHWVRQAPGKGLEWVASIYPSSSSTSYADSVKGRFTISADTSKNTAYLQMNSLRAEDTAVYYCARGAMDYWGQGTLVTVSS VL: DIQMTQSPSSLSASVGDRVTITCRASQSVSSAVAWYQQKPGKAPKLLIYSASSLYSGVPSRFSGSRSGTDFTLTISSLQPEDFATYYCQQWYYGSLITFGQGTKVEIK | −15.14 | 68.03 | 78.98 | 38.30 | −26.59 | −4.97 | 6.47 | 4.37 | 16.76
++++ | − | − | Fab-2913: anti-FZD5 Fab with antibody variable region Fv-2913; CDR SEQ ID NOs: 35, 36, 52, 91, 128, 165 (antibody, V domains shown) VH: EVQLVESGGGLVQPGGSLRLSCAASGFNISYSSIHWVRQAPGKGLEWVASIYPYSSSTSYADSVKGRFTISADTSKNTAYLQMNSLRAEDTAVYYCARYGYYGLDYWGQGTLVTVSS VL: DIQMTQSPSSLSASVGDRVTITCRASQSVSSAVAWYQQKPGKAPKLLIYSASSLYSGVPSRFSGSRSGTDFTLTISSLQPEDFATYYCQQWGVSHYLFTFGQGTKVEIK | −15.09 | 59.79 | 68.29 | −7.73 | −43.04 | −5.59 | −28.52 | 3.85 | 2.25
